Source: paper PMC6444592, “Citrullination of HP1γ chromodomain affects association with chromatin” (Epigenetics & Chromatin, 2019)

Legend:
[1] = target: T1, GST-HP1γR38/9A (full-length mouse HP1γ with alanine substitutions at amino acids 38 and 39) (mouse, UniProt P23198 1-183, R38/9A | R38/9A); experiment: pull-down; H3K9me3 or unmethylated H3(1–16) peptides linked to Dynabeads MyOne streptavidin T1; eluted GST-HP1 in HBS-EP (300 mM NaCl, 10 mM HEPES KOH pH 7.4, 5 mM EDTA, 0.2% NP-40); SDS-PAGE, Coomassie-blue staining; settings: both partners purified
T1 construct: heterochromatin protein 1 gamma (HP1γ), mouse, full length, R38A and R39A (designed to mimic citrullination); also called double alanine mutant; source: E. coli, expressed as GST fusion protein (pGEX-2T), purified

[2] = target: T2, GST-HP1γR38/9K (full-length mouse HP1γ with R38 and R39 mutated to lysine) (mouse, UniProt P23198 1-183, R38/9K | R38/9K); experiment: as above; settings: both partners purified
T2 construct: heterochromatin protein 1 gamma (HP1γ), mouse, full length, R38K and R39K (retains the positive charge); source: E. coli, expressed as GST fusion protein (pGEX-2T), purified
T2 sequence (P23198 other isoform, or with tags, fused parts or gaps R38/9K | R38/9K | R38/9K | R38/9K): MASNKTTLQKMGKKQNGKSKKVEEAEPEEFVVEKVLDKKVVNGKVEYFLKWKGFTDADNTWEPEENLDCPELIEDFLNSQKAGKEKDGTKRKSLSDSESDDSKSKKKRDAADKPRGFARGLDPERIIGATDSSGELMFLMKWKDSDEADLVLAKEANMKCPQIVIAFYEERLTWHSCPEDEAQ

T1 sequence (P23198 other isoform, or with tags, fused parts or gaps R38/9A | R38/9A | R38/9A | R38/9A): as the sequence (P23198 other isoform, or with tags, fused parts or gaps R38/9K | R38/9K | R38/9K | R38/9K) above, with K38A, K39A counted along it

B1: H3K9me3(1–16) peptide (peptide)
peptide: ARTKQTARKSTGGKAP
modifications: trimethyl-lysine at K9 (K(me3)); biotin at the C-terminus
notes: histone H3, residues 1-16; also called methylated H3K9me3(1–16) peptides; H3K9me3 peptides
B1: binds [1]; binds [2].
